What was measured:
Experiment in all cases: Co-immunoprecipitation with Bcl-2 family proteins in HEK293T cells
Type in all cases: binding
[1] = molecular target: Bcl-2 (Homo sapiens, UniProt P10415)
From the text: (§1) (A) HEK293T cells were transfected with pcDNA3-myc plasmids encoding Bax or other Bcl-2 family proteins with GFP, GFP-HN, or GFP-HN(C8P). Cell lysates were immunoprecipitated with polyclonal anti-GFP antibody. The immunoprecipitates or the lysates were blotted with anti-myc or anti-GFP antibodies, respectively. The slower migrating form of GFP seen in lane 1 (asterisk)represents an alternative form of GFP produced from the wild-type (control) p-EGFP-Cl plasmid (http://clonotech.com). (B) Testes of three-week-old mice were homogenized in lysis buffer (0.1% Triton X-100, 50 mM Tris-HCl, pH7.5, 1 mM EDTA, plus protease inhibitor cocktail). The lysates were immunoprecipitated with control rabbit serum or polyclonal anti-mouse Bax antibody. The immunoprecipitates or the lysates were subjected to electrophoresis in Tris/Tricine gels (16% T, 3% C), electroblotted to PVDF membrane, and immunoblotted with polyclonal anti-HN antibody or monoclonal anti-Bax antibody 6A7 (Trevigen). (C) The affinity (Kd) of Bax/HN interaction was measured by fluorescence polarization assay, using various concentrations of purified recombinant Bax and 40 nM rhodamine-conjugated HN peptide. Control peptide from CD40 is also shown (mean +Std Dev; n=3).
(§2) Furthermore, multiple Bcl-2 family proteins were surveyed for interactions with Humanin by coimmunoprecipitation experiments (FIG. 5A).
(§3) Immunoblotting and immunoprecipitations were performed as follows. Immunoblotting was performed as described previously (Fields and Song, Nature 340:245-246 (1989)). For co-immunoprecipitations, cells were cultured in 50 uM […] Valine Alanine Asparate fluoromethyl-ketone (zVAD-fmk) to prevent apoptosis. Cells were suspended in lysis buffer (50 mM Tris-HCl, pH7.4; 150 mM NaCl; 20 mM EDTA; 50 mM NaF; 0.5% NP-40; 0.1 mM Na3VO4; 20 ug/ml Leupeptin; 20 ug/ml Aprotinin; 1 mM DTT; and 1 mM PMSF). Lysates (200 ul diluted in 1 ml final volume of lysis buffer) were cleared by incubation with 15 ul of protein G-Sepharose 4B (Zymed) and then incubated with 15 ul of polyclonal antibody and 15 ul of protein G at 4° C. overnight. Beads were then washed 4 times with 1.5 mls lysis buffer before boiling in Laemmli sample buffer and performing SDS-PAGE/immunoblotting.

[2] = molecular target: T1, Bcl-B (Homo sapiens, UniProt Q9HD36)
T1 construct: expressed in transfected cells; host or cells: HEK293T
T1 sequence (Q9HD36 1-204): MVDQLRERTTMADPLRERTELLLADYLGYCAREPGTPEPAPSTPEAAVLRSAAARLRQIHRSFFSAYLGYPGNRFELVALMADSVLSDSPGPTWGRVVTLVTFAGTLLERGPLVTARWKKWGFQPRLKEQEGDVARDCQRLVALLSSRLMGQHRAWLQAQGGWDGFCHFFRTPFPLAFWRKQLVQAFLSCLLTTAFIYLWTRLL
From the text: as §1, §2, §3

[3] = molecular target: Bcl-XL (Homo sapiens, UniProt Q07817)
From the text: as §1, §2, §3

[4] = molecular target: T2, Bok (Homo sapiens, UniProt Q9UMX3)
T2 construct: expressed in transfected cells; host or cells: HEK293T
T2 sequence (Q9UMX3 1-212): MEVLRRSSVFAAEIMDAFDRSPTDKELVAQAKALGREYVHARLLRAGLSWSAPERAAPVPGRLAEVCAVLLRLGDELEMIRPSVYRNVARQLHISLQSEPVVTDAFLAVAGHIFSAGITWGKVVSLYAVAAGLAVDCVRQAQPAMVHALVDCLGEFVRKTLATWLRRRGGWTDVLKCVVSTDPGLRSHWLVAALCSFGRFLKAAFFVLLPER
From the text: as §1, §2, §3

[5] = molecular target: Mcl-1 (Homo sapiens, UniProt Q07820)
From the text: as §1, §2, §3

[6] = molecular target: T3, Bak (Homo sapiens, UniProt Q16611); set-up: expressed in transfected cells; host or cells: HEK293T
T3 sequence (Q16611 1-211): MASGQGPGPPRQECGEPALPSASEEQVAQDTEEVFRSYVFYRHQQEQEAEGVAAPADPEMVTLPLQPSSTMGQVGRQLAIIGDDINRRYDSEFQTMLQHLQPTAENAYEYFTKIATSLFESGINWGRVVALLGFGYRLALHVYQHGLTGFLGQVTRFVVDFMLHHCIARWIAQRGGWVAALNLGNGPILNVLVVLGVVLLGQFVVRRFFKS
From the text: as §1
Furthermore, multiple Bcl-2 family proteins were surveyed for interactions with Humanin by coimmunoprecipitation experiments (FIG. 5A). […]

Bcl-2, sequence (P10415 whole entry, species assumed): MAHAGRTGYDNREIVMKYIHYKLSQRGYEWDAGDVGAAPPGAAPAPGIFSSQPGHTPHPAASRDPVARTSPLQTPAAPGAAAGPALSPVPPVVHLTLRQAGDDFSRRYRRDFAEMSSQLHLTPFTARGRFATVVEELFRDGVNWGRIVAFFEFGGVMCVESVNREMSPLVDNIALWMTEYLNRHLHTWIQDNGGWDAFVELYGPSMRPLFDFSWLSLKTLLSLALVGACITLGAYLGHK
Mcl-1, sequence (Q07820 whole entry, species assumed): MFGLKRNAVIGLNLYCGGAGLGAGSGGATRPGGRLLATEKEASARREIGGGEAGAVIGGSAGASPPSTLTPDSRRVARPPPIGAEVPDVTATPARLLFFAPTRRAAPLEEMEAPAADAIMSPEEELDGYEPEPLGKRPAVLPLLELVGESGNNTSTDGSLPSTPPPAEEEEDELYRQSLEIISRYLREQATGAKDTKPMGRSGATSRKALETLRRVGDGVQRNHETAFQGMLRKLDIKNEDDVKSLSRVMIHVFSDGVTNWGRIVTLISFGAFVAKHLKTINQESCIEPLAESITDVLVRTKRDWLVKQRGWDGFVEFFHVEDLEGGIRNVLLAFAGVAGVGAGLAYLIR
Bcl-XL, sequence (Q07817 whole entry, species assumed): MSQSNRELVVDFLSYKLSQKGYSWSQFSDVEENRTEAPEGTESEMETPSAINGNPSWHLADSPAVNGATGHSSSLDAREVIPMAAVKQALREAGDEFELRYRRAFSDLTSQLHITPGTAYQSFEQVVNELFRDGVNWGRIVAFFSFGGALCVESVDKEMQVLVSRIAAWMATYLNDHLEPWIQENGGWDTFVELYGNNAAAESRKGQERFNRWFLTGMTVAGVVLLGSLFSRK

co-immunoprecipitation with Bcl-2 [1]: did not co-immunoprecipitate
co-immunoprecipitation with Bcl-B [2]: did not co-immunoprecipitate
co-immunoprecipitation with Bcl-XL [3]: did not co-immunoprecipitate
co-immunoprecipitation with Bok [4]: did not co-immunoprecipitate
co-immunoprecipitation with Mcl-1 [5]: did not co-immunoprecipitate
co-immunoprecipitation with Bak [6]: did not co-immunoprecipitate
Substance: GFP-HN: Wild-type full-length Humanin fused to Green Fluorescent Protein
